From the supplement of paper PMC7877785
± gives the uncertainty stated by the source.

Test: self-splicing fitness, log relative to wild type (ln ratio); higher = more splicing; Tetrahymena group I intron in knt gene, E. coli kanamycin selection, DiMSum; sequences stand for … in CUCUCU…GGAGGGAAAAGUUAUCAGGCAUGCACCUGGUAGCUAGUCUUUAAACCAAUAGAUUGCAUCGGUUUAAAAGGCAAGACCGUCAAAUUGCGGGAAAGGGGUCAACAGCCGUUCAGUACCAAGUCUCAGGGGAAACUUUGAGAUGGCCUUGCAAAGGGUAUGGUAAUAAGCUGACGGACAUGGUCCUAACCACGCAGCCAAGUCCUAAGUCAACAGAUCUUCUGUUGAUAUGGAUGCAGUUCACAGACUAAAUGUCGGUCGGGGAAGAUGUAUUCUUCUCAUAAGAUAUAGUCGGACCUCUCCUUAAUGGGAGCUAGCGGAUGAAGUGAUGCAACACUGGAGCCGCUGGGAACUAAUUUGUAUGCGAAAGUAUAUUGAUUAGUUUUGGAGUACUCGUGGUCG
Summary of the method: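 Colonies from six replicate transformations of E. coli BL21(DE3) were pooled and amplicon-sequenced on an Illumina HiSeq 2500. The library placed an intron with all eight P1ex-region nucleotides randomised inside the knt kanamycin-resistance gene on pET-22b(+), and cells grew overnight at 37°C or 30°C on LB agar with or without 25 μg/mL kanamycin (plus 100 μg/mL carbenicillin, 50 μM IPTG, 0.2% rhamnose). Fitness is the DiMSum error-weighted combination of wild-type-normalised replicate fold changes, kanamycin versus none.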

Row | Sequence | self-splicing fitness (ln) (30 °C) | self-splicing fitness (ln) (37 °C)
1 | GUAAAGCAAUAUUACGUCGA | -0.947 ± 0.088 | -0.407 ± 0.1
2 | UAAAAGCAAUAUUACGCUCG | -0.628 ± 0.084 | 0.0432 ± 0.099
3 | UAAUAGCAAUAUUACGAUUA | -1.04 ± 0.13 | 0.0261 ± 0.14
4 | GCGCAGCAAUAUUACGCGAU | – | -2.14 ± 0.3
5 | CAGUAGCAAUAUUACGGCUG | -3.85 ± 0.47 | -2.37 ± 0.34
6 | GCCGAGCAAUAUUACGUUCG | -2.72 ± 0.26 | -2 ± 0.34
7 | CGGUAGCAAUAUUACGAGUG | -0.671 ± 0.098 | 0.142 ± 0.17
8 | UCCUAGCAAUAUUACGAAAU | -3.19 ± 0.47 | -0.807 ± 0.42
9 | AUUGAGCAAUAUUACGGAGG | -2.97 ± 0.22 | –
10 | CUUAAGCAAUAUUACGGGUC | -4.47 ± 0.34 | -2.98 ± 0.23
11 | AGUCAGCAAUAUUACGUGGU | -1.26 ± 0.11 | -2.37 ± 0.19
12 | AGGCAGCAAUAUUACGGUUU | -0.696 ± 0.043 | -0.371 ± 0.062
13 | GGUGAGCAAUAUUACGAUGA | -3.32 ± 0.29 | -2.29 ± 0.21
14 | UGGAAGCAAUAUUACGUGGA | -2.88 ± 0.16 | -0.926 ± 0.12
15 | CCGUAGCAAUAUUACGAAAC | -2.61 ± 0.41 | -0.972 ± 0.29
16 | AGCCAGCAAUAUUACGAAAA | – | -1.63 ± 0.24
17 | GCUGAGCAAUAUUACGCGUC | -1.94 ± 0.17 | -0.941 ± 0.21
18 | GCCUAGCAAUAUUACGACUU | -1.37 ± 0.077 | -0.298 ± 0.079
19 | CAUAAGCAAUAUUACGAUGU | -3.66 ± 0.14 | -2.3 ± 0.14
20 | CUGUAGCAAUAUUACGAGGG | -3.5 ± 0.49 | -1.14 ± 0.34
21 | CCCCAGCAAUAUUACGAACG | -3.44 ± 0.2 | -2.19 ± 0.18
22 | UCCUAGCAAUAUUACGUUGA | -0.805 ± 0.071 | 0.0396 ± 0.089
23 | CUGCAGCAAUAUUACGUUCC | – | -1.74 ± 0.35
24 | ACAUAGCAAUAUUACGCCAU | -3.25 ± 0.28 | -2.08 ± 0.22
25 | ACACAGCAAUAUUACGGCGU | -0.67 ± 0.07 | -0.414 ± 0.093
26 | GCAAAGCAAUAUUACGGCAC | -0.648 ± 0.081 | -0.426 ± 0.09

Row | Sequence | self-splicing fitness (ln) (30 °C) | self-splicing fitness (ln) (37 °C)
27 | CUGAAGCAAUAUUACGGUGA | -4.38 ± 0.31 | -2.6 ± 0.21
28 | ACGAAGCAAUAUUACGAGGC | -3.62 ± 0.21 | -1.81 ± 0.16
29 | GGCGAGCAAUAUUACGAGAG | -3.79 ± 0.39 | -2.54 ± 0.33
30 | UAGCAGCAAUAUUACGGUCU | -1.22 ± 0.074 | -1.24 ± 0.086
31 | UCGCAGCAAUAUUACGUACG | -1.12 ± 0.12 | -0.686 ± 0.13
32 | ACGGAGCAAUAUUACGUCGU | -2.98 ± 0.26 | -2.48 ± 0.19
33 | GCGAAGCAAUAUUACGCUGG | -1.61 ± 0.13 | -2.73 ± 0.22
34 | UUCGAGCAAUAUUACGGGGG | -2.88 ± 0.3 | -2.23 ± 0.42
35 | UUGCAGCAAUAUUACGGUUA | 0.353 ± 0.082 | 0.0359 ± 0.075
36 | CAAAAGCAAUAUUACGCUAC | -3.82 ± 0.26 | -2.59 ± 0.25
37 | UUCCAGCAAUAUUACGCGCU | -3.9 ± 0.3 | –
38 | ACGGAGCAAUAUUACGGGAA | -4.37 ± 0.36 | -2.03 ± 0.31
39 | UGAGAGCAAUAUUACGCAAA | – | -0.61 ± 0.36
40 | GUACAGCAAUAUUACGCAGA | – | -2.72 ± 0.2
41 | UGCUAGCAAUAUUACGUCUA | -1.21 ± 0.11 | -0.84 ± 0.1
42 | UUAUAGCAAUAUUACGUUUC | -4.48 ± 0.3 | -3.31 ± 0.32
43 | AAUCAGCAAUAUUACGGCAU | -0.109 ± 0.045 | 0.27 ± 0.059
44 | AGUAAGCAAUAUUACGCCUC | – | -1.7 ± 0.38
45 | GAUGAGCAAUAUUACGAAGU | -2.87 ± 0.22 | -2.84 ± 0.28
46 | ACUUAGCAAUAUUACGGACG | -1.59 ± 0.1 | -0.553 ± 0.12
47 | AGUCAGCAAUAUUACGGGAU | -1.04 ± 0.079 | -1.51 ± 0.15
48 | AUUAAGCAAUAUUACGCUGA | -2.36 ± 0.41 | -0.862 ± 0.28
49 | UACCAGCAAUAUUACGUAGU | -2.96 ± 0.099 | -1.65 ± 0.1
50 | CAUCAGCAAUAUUACGGCUA | -2.82 ± 0.2 | -1.44 ± 0.16
51 | CGAGAGCAAUAUUACGGAAA | -1.65 ± 0.33 | –
